Results taken from ChEMBL document CHEMBL2073921, “The human T-type amino acid transporter-1: characterization, gene organization, and chromosomal location” (Genomics, 2002).

Tests used:
Conditions in all cases: Xenopus laevis; Oocyte
[1] = substrate: N[C@@H](Cc1c[nH]c2ccccc12)C(=O)O
Description: (§1) TP_TRANSPORTER: uptake in Xenopus laevis oocytes

[2] = substrate: N[C@H](Cc1ccccc1)C(=O)O
Description: as §1

[3] = substrate: N[C@@H](Cc1ccc(O)cc1)C(=O)O
Description: as §1

[4] = substrate: N[C@@H](Cc1ccc(O)c(O)c1)C(=O)O
Description: as §1

[5] = substrate: N[C@@H](Cc1ccccc1)C(=O)O
Description: as §1

B1: SLC16A10 protein (Homo sapiens), Q05BR4 (protein)
chain: MVLSQEEPDSARGTSEAQPLGPAPTGAAPPPGPGPSDSPEAAVEKVEVELAGPATAEPHEPPEPPEGGWGWLVMLAAMWCNGSVFGIQNACGVLFVSMLETFGSKDDDKMVFKTAWVGSLSMGMIFFCCPIVSVFTDLFGCRKTAVVGAAVGFVGLMSSSFVSSIEPLYLTYGIIFACGCSFAYQPSLVILGHYFKKRLGLVNGIVTAGSSVFTILLPLLLRVLIDSVGLFYTLRVLCIFMFVLFLAGFTYRPLATSTKDKESGGSGSSLFSRKKFSPPKKNFQFCHLQGDSLCSVGSWNTTCTFWILCALCSLGEYAPSLIMNITI
Km [1]: 452 µM
Km [2]: 2300 µM
Km [3]: 636 µM
Km [4]: 1210 µM
Km [5]: 740 µM
